The values that follow come from PMC9798253 (Protein Science : A Publication of the Protein Society, 2023).

The target of the assay is MBP-tagged ADD domain of DNMT3A (476-614) (human, UniProt Q9Y6K1 476-614). Nature of the assay: peptide or protein array.

For EKSPGKLLVKMPFQT [TRD 214–228 peptide (WT, 15mer, E214-T228)], the binding result is given as “binds”.
